Results from paper PMC12724329.

Biological target: gcKPNB3-FLAG (grass carp importin beta 3, FLAG-tagged) (grass carp)
Assay: co-IP; co-IP of IRF3 with gcKPNB3 from GCRV-infected CIK cells with gcDDX56 overexpressed (+, 4 µg; ++, 8 µg plasmid) or knocked down by siRNA; bands quantified with ImageJ

Substance: gcIRF3-HA (grass carp IRF3, HA-tagged) (natural protein)
- fold change of the interaction on gcDDX56 knockdown against the siRNA control: 3.23 fold
